Source: patent US6447783 (YEDA RESEARCH AND DEVELOPMENT, dated 2002)

B1: Soluble extracellular domain of murine FGFR1 coupled to human placental alkaline phosphatase (receptor)
chain: RPAPTLPEQAQPWGVPVEVESLLVHPGDLLQLRCRLRDDVQSINWLRDGVQLVESNRTRITGEEVEVRDSIPADSGLYACVTSSPSGSDTTYFSVNVSDALPSSEDDDDDDDSSSEEKETDNTKPNRRPVAPYWTSPEKMEKKLHAVPAAKTVKFKCPSSGTPNPTLRWLKNGKEFKPDHRIGGYKVRYATWSIIMDSVVPSDKGNYTCIVENEYGSINHTYQLDVVERSPHRPILQAGLPANKTVALGSNVEFMCKVYSDPQPHIQWLKHIEVNGSKIGPDNLPYVQILKTAGVNTTDKEMEVLHLRNVSFEDAGEYTCLAGNSIGLSHHSAWLTVLEALEERPAVMTSPLYLE
notes: extracellular domain; Collected from conditioned medium of transfected NIH 3T3 cells; also called FGFR1 fusion protein; FGFR-alkaline phosphatase fusion protein; not shown: human placental alkaline phosphatase
B2: Full length mouse FGFR3 expressed in CHO cells (wild type KI and heparan-sulfate deficient 745) (receptor)
chain: EPPGPEQRVVRRAAEVPGPEPSQQEQVAFGSGDTVELSCHPPGGAPTGPTVWAKDGTGLVASHRILVGPQRLQVLNASHEDAGVYSCQHRLTRRVLCHFSVRVTDAPSSGDDEDGEDVAEDTGAPYWTRPERMDKKLLAVPAANTVRFRCPAAGNPTPSISWLKNGKEFRGEHRIGGIKLRHQQWSLVMESVVPSDRGNYTCVVENKFGSIRQTYTLDVLERSPHRPILQAGLPANQTAILGSDVEFHCKVYSDAQPHIQWLKHVEVNGSKVGPDGTPYVTVLKTAGANTTDKELEVLSLHNVTFEDAGEYTCLAGNSIGFSHHSAWLVVLPAEEELMETDEAGSVYAGVLSYGVVFFLFILVVAAVILCRLRSPPKKGLGSPTVHKVSRFPLKRQVSLESNSSMNSNTPLVRIARLSSGEGPVLANVSELELPADPKWELSRTRLTLGKPLGEGCFGQVVMAEAIGIDKDRTAKPVTVAVKMLKDDATDKDLSDLVSEMEMMKMIGKHKNIINLLGACTQGGPLYVLVEYAAKGNLREFLRARRPPGMDYSFDACRLPEEQLTCKDLVSCAYQVARGMEYLASQKCIHRDLAARNVLVTEDNVMKIADFGLARDVHNLDYYKKTTNGRLPVKWMAPEALFDRVYTHQSDVWSFGVLLWEIFTPGGPSPYPGIPVEELFKLLKEGHRMDKPASCTHDLYMIMRECWHAVPSQRPTFKQLVEDLDRILTVTSTDEYLDLSVPFEQYSPGGQDTPSSSSSGDDSVFTHDLLPPGPPSNGGPRT
notes: whole, on cells; also called FGFR3 transfected CHO-KI cells

Legend:
[1] = biological target: T1, Recombinant mouse FGF9 (fibroblast growth factor 9) (mouse); assay: FGF9 immobilised on heparin-sepharose, bound receptor-AP measured by alkaline phosphatase activity
[2] = biological target: T1, Recombinant mouse FGF9 (fibroblast …); assay: 125I-FGF9 binding to FGFR3 transfected CHO-KI cells at 4 C, in the presence of 1 mg/ml heparin
[3] = biological target: T1, Recombinant mouse FGF9 (fibroblast …); assay: 125I-FGF9 binding to FGFR3 transfected CHO 745 cells at 4 C, in the presence of 1 mg/ml heparin

Binder | binding result [1] | Kd [2] [nM] | Kd [3] [nM]
B1 | no binding | – | –
B2 | – | 0.06 | 0.1
